Results from publication PMC11931385, “Structural and functional analysis of cancer-associated missense variants in the retinoblastoma protein pocket domain” (The Journal of Biological Chemistry, 2025).
No end group written: not given here. TMR = tetramethyl rhodamine dye

T1: Rb^P R451H (human, UniProt P06400 380-788, R451H)
T1 construct: also called variant 6
T1 sequence (looked up): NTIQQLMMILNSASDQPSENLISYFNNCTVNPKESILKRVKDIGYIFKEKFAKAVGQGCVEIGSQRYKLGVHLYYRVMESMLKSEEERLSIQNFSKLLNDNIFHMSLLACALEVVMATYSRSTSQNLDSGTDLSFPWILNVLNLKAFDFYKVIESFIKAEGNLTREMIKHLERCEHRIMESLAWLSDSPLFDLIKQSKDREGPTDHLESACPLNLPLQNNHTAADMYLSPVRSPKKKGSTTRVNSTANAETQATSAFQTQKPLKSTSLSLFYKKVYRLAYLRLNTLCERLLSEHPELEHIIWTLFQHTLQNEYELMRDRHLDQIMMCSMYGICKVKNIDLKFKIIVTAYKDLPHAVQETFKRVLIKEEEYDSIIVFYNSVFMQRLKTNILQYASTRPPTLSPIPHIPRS

T2: Rb^P I703V (human, UniProt P06400 380-788, I703V)
T2 construct: also called variant 65
T2 sequence (looked up): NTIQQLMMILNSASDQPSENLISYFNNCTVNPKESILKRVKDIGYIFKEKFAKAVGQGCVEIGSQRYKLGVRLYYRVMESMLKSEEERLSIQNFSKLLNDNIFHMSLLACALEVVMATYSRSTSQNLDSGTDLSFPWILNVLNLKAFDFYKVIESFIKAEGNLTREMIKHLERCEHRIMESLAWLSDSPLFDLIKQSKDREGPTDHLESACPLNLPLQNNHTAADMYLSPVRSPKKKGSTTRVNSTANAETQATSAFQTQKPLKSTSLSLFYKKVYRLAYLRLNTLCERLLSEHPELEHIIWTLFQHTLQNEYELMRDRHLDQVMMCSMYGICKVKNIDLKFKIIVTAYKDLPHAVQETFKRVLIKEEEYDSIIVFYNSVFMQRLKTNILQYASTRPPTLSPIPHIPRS

T3: Rb^P K548N (human, UniProt P06400 380-788, K548N)
T3 construct: also called variant 26
T3 sequence (looked up): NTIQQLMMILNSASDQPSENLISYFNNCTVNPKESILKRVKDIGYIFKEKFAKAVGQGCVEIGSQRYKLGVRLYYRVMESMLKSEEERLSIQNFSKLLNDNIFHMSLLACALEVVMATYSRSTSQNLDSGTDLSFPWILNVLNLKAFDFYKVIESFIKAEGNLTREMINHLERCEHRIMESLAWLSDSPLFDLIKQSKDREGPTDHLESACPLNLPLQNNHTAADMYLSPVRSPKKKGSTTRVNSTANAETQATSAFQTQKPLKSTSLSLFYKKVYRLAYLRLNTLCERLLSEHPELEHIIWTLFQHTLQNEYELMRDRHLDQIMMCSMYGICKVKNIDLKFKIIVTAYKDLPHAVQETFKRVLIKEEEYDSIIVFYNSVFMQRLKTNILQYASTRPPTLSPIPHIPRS

T4: retinoblastoma protein pocket domain (Rb^P), wild type (human, UniProt P06400 380-788)
T4 construct: also called WT Rb^P; WT
T4 sequence (looked up): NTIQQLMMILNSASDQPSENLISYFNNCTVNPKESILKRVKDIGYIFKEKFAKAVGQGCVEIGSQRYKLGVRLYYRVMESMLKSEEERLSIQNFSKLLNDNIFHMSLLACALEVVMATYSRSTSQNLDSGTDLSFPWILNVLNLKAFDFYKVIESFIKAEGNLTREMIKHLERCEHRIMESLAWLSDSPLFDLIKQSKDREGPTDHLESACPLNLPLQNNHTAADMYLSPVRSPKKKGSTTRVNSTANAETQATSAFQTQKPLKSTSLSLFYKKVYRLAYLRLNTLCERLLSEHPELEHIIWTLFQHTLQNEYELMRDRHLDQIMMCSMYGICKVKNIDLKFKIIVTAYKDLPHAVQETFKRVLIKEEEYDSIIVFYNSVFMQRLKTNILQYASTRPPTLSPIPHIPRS

T5: Rb^P E693A (human, UniProt P06400 380-788, E693A)
T5 construct: also called variant 60
T5 sequence (looked up): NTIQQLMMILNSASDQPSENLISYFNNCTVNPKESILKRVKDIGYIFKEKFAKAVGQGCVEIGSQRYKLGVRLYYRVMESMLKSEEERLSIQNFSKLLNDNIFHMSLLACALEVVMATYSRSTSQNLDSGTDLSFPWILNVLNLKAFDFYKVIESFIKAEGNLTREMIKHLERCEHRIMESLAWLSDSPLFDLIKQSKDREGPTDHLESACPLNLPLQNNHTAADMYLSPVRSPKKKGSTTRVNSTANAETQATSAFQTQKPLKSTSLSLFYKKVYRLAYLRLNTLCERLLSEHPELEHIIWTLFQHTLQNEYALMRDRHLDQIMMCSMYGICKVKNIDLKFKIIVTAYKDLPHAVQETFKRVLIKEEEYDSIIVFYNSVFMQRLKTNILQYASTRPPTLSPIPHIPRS


Key:
Assay in all cases: fluorescence polarisation; 25 °C; unlabeled Rb^P titrated against 1.5 nM TMR-E2F1^TD or 7.5 nM TMR-E7^LxCxE; 25 mM Tris pH 8.0, 200 mM NaCl, 1 mM DTT, 0.1% Tween-20; 2 min incubation; quadratic fit; apparent Kd for the variants, Kd for WT
Conditions in all cases: both partners purified
[1] = target: T1, Rb^P R451H
[2] = target: T2, Rb^P I703V
[3] = target: T3, Rb^P K548N
[4] = target: T4, retinoblastoma protein pocket domain …
[5] = target: T5, Rb^P E693A

Row | Binder | Kd [1] | Kd [2] | Kd [3] | Kd [4] | Kd [5]
1 | {TMR}-GEGIRDLFDCDFGDLTPLD (also called E2F^TD; source: synthetic peptide, bought: GenScript) [TMR-E2F1^TD, peptide of the E2F1 transactivation domain] | 29 nM | 20 nM | 133 nM | 14 nM | 42 nM
2 | DLYCYEQLN (also: TMR label, position not given here, source: synthetic peptide, bought: GenScript) [TMR-E7^LxCxE, LxCxE peptide of the E7 oncoprotein from HPV] | 9 nM | 21 nM | 6 nM | 5 nM | 7 nM
